Legend:
[1] = molecular target: NLS-TAF15(IDR)-Halo-FTH1 (UniProt Q92804); assay: live-cell single-particle tracking (SPT), residence time in puncta; living U2OS cells at 37°C, 5% CO2; HILO illumination; PA-JF646-labelled single molecules tracked (500 ms per frame, 2000 frames) within puncta of the same protein seen with JFX549; in-puncta trajectories; specific residence time of a two-component exponential fit, corrected for photobleaching with H2B-Halo
[2] = molecular target: Halo-TAF15(IDR)-NLS (UniProt Q92804); assay: as above

residence time (RT) at its puncta [1] | residence time (RT) at its puncta [2] | Substance
64.2 s |  | NLS-TAF15(IDR)-Halo-FTH1 (from UniProt Q92804 2-205)
 | 10.2 s | Halo-TAF15(IDR)-NLS (from UniProt Q92804 2-205) (domain or fragment)

Reference: PMC9817179
